Here are results for 7 proteins from paper PMC8861878 (The Journal of pharmacy and pharmacology, 2020).

Substrate in data set [1]: CC(C)=CCc1c(O)ccc2c1O[C@H](c1ccc(O)cc1)CC2=O
Nature of the data set: cells, lysate or membranes named. Format: in vitro ADME, human. As to conditions: substrate inhibition model, pH 7.4, 37.0 °C.

Substrate in the data set “not read”: CC(C)=CCc1c(O)ccc2c1O[C@H](c1ccc(O)cc1)CC2=O
Description: not read. As to conditions: substrate inhibition model, pH 7.4, 37.0 °C.

B1: UGT1A9 (Homo sapiens) (protein)
chain: GKLLVVPMDGSHWFTMRSVVEKLILRGHEVVVVMPEVSWQLGRSLNCTVKTYSTSYTLEDLDREFKAFAHAQWKAQVRSIYSLLMGSYNDIFDLFFSNCRSLFKDKKLVEYLKESSFDAVFLDPFDNCGLIVAKYFSLPSVVFARGILCHYLEEGAQCPAPLSYVPRILLGFSDAMTFKERVRNHIMHLEEHLLCHRFFKNALEIASEILQTPVTEYDLYSHTSIWLLRTDFVLDYPKPVMPNMIFIGGINCHQGKPLPMEFEAYINASGEHGIVVFSLGSMVSEIPEKKAMAIADALGKIPQTVLWRYTGTRPSNLANNTILVKWLPQNDLLGHPMTRAFITHAGSHGVYESICNGVPMVMMPLFGDQMDNAKRMETKGAGVTLNVLEMTSEDLENALKAVINDKSYKENIMRLSSLHKDRPVEPLDLAVFWVEFVMRHKGAPHLRPAAHDLTWYQYHSLDVIGFLLAVVLTVAFITFKCCAYGYRKCLGKKGRVKKAHKSKTH
Take B1: in data set [1] (other: formation of G1), the K0.5 stood at 15.63 ± 3.12 µM.

B2: UGT1A7 (Homo sapiens) (protein)
chain: GKLLVVPMDGSHWFTMQSVVEKLILRGHEVVVVMPEVSWQLGRSLNCTVKTYSTSYTLEDQDREFMVFADARWTAPLRSAFSLLTSSSNGIFDLFFSNCRSLFNDRKLVEYLKESCFDAVFLDPFDACGLIVAKYFSLPSVVFARGIFCHYLEEGAQCPAPLSYVPRLLLGFSDAMTFKERVWNHIMHLEEHLFCPYFFKNVLEIASEILQTPVTAYDLYSHTSIWLLRTDFVLEYPKPVMPNMIFIGGINCHQGKPVPMEFEAYINASGEHGIVVFSLGSMVSEIPEKKAMAIADALGKIPQTVLWRYTGTRPSNLANNTILVKWLPQNDLLGHPMTRAFITHAGSHGVYESICNGVPMVMMPLFGDQMDNAKRMETKGAGVTLNVLEMTSEDLENALKAVINDKSYKENIMRLSSLHKDRPVEPLDLAVFWVEFVMRHKGAPHLRPAAHDLTWYQYHSLDVIGFLLAVVLTVAFITFKCCAYGYRKCLGKKGRVKKAHKSKTH
For the protein B2, in data set [1] (other: formation of G1), the K0.5 worked out at 32.91 ± 5.76 µM.

B3: UGT1A6 (Homo sapiens) (protein)
chain: DKLLVVPQDGSHWLSMKDIVEVLSDRGHEIVVVVPEVNLLLKESKYYTRKIYPVPYDQEELKNRYQSFGNNHFAERSFLTAPQTEYRNNMIVIGLYFINCQSLLQDRDTLNFFKESKFDALFTDPALPCGVILAEYLGLPSVYLFRGFPCSLEHTFSRSPDPVSYIPRCYTKFSDHMTFSQRVANFLVNLLEPYLFYCLFSKYEELASAVLKRDVDIITLYQKVSVWLLRYDFVLEYPRPVMPNMVFIGGINCKKRKDLSQEFEAYINASGEHGIVVFSLGSMVSEIPEKKAMAIADALGKIPQTVLWRYTGTRPSNLANNTILVKWLPQNDLLGHPMTRAFITHAGSHGVYESICNGVPMVMMPLFGDQMDNAKRMETKGAGVTLNVLEMTSEDLENALKAVINDKSYKENIMRLSSLHKDRPVEPLDLAVFWVEFVMRHKGAPHLRPAAHDLTWYQYHSLDVIGFLLAVVLTVAFITFKCCAYGYRKCLGKKGRVKKAHKSKTH
Consider B3, for which, in data set [1] (other: formation of G1), the K0.5 came to 67.66 ± 16.32 µM; the Vmax – broadly, the rate approached at saturating substrate – was determined as 0.00382 µmol/min/mg; the Vmax/Km stood at 56.5 µL/min/mg. Also, in data set [1] (other: formation of G2), the K0.5 is 31.85 ± 6.28 µM, the Vmax is 0.000342 µmol/min/mg and the Vmax/Km came to 10.7 µL/min/mg.

B4: UGT1A1 (Homo sapiens) (protein)
chain: HAGKILLIPVDGSHWLSMLGAIQQLQQRGHEIVVLAPDASLYIRDGAFYTLKTYPVPFQREDVKESFVSLGHNVFENDSFLQRVIKTYKKIKKDSAMLLSGCSHLLHNKELMASLAESSFDVMLTDPFLPCSPIVAQYLSLPTVFFLHALPCSLEFEATQCPNPFSYVPRPLSSHSDHMTFLQRVKNMLIAFSQNFLCDVVYSPYATLASEFLQREVTVQDLLSSASVWLFRSDFVKDYPRPIMPNMVFVGGINCLHQNPLSQEFEAYINASGEHGIVVFSLGSMVSEIPEKKAMAIADALGKIPQTVLWRYTGTRPSNLANNTILVKWLPQNDLLGHPMTRAFITHAGSHGVYESICNGVPMVMMPLFGDQMDNAKRMETKGAGVTLNVLEMTSEDLENALKAVINDKSYKENIMRLSSLHKDRPVEPLDLAVFWVEFVMRHKGAPHLRPAAHDLTWYQYHSLDVIGFLLAVVLTVAFITFKCCAYGYRKCLGKKGRVKKAHKSKTH
Regarding B4, the K0.5 in data set [1] (other: formation of G1) came to 41.84 ± 8.25 µM.

B5: UGT1A8 (Homo sapiens) (protein)
chain: GKLLVVPMDGSHWFTMQSVVEKLILRGHEVVVVMPEVSWQLGKSLNCTVKTYSTSYTLEDLDREFMDFADAQWKAQVRSLFSLFLSSSNGFFNLFFSHCRSLFNDRKLVEYLKESSFDAVFLDPFDACGLIVAKYFSLPSVVFARGIACHYLEEGAQCPAPLSYVPRILLGFSDAMTFKERVRNHIMHLEEHLFCQYFSKNALEIASEILQTPVTAYDLYSHTSIWLLRTDFVLDYPKPVMPNMIFIGGINCHQGKPLPMEFEAYINASGEHGIVVFSLGSMVSEIPEKKAMAIADALGKIPQTVLWRYTGTRPSNLANNTILVKWLPQNDLLGHPMTRAFITHAGSHGVYESICNGVPMVMMPLFGDQMDNAKRMETKGAGVTLNVLEMTSEDLENALKAVINDKSYKENIMRLSSLHKDRPVEPLDLAVFWVEFVMRHKGAPHLRPAAHDLTWYQYHSLDVIGFLLAVVLTVAFITFKCCAYGYRKCLGKKGRVKKAHKSKTH
In the case of B5, the K0.5 in data set [1] (other: formation of G1) came to 34.71 ± 6.45 µM.

B6: CYP1A2 (Homo sapiens) (protein)
chain: MALSQSVPFSATELLLASAIFCLVFWVLKGLRPRVPKGLKSPPEPWGWPLLGHVLTLGKNPHLALSRMSQRYGDVLQIRIGSTPVLVLSRLDTIRQALVRQGDDFKGRPDLYTSTLITDGQSLTFSTDSGPVWAARRRLAQNALNTFSIASDPASSSSCYLEEHVSKEAKALISRLQELMAGPGHFDPYNQVVVSVANVIGAMCFGQHFPESSDEMLSLVKNTHEFVETASSGNPLDFFPILRYLPNPALQRFKAFNQRFLWFLQKTVQEHYQDFDKNSVRDITGALFKHSKKGPRASGNLIPQEKIVNLVNDIFGAGFDTVTTAISWSLMYLVTKPEIQRKIQKELDTVIGRERRPRLSDRPQLPYLEAFILETFRHSSFLPFTIPHSTTRDTTLNGFYIPKKCCVFVNQWQVNHDPELWEDPSEFRPERFLTADGTAINKPLSEKMMLFGMGKRRCIGEVLAKWEIFLFLAILLQQLEFSVPPGVKVDLTPIYGLTMKHARCEHVQARLRFSIN
On to B6, for which, in the data set “not read” (other: formation of M1), the K0.5 came out at 5.08 ± 0.54 µM, the Vmax stood at 0.000312 µmol/min/mg and the Vmax/Km is 61.4 µL/min/mg. For the same protein, in the data set “not read” (other: formation of M3), the K0.5 was found to be 19.81 ± 9.47 µM, the Vmax amounted to 0.000173 µmol/min/mg and the Vmax/Km was 8.75 µL/min/mg.

B7: CYP2C19 (Homo sapiens) (protein)
chain: MDPFVVLVLCLSCLLLLSIWRQSSGRGKLPPGPTPLPVIGNILQIDIKDVSKSLTNLSKIYGPVFTLYFGLERMVVLHGYEVVKEALIDLGEEFSGRGHFPLAERANRGFGIVFSNGKRWKEIRRFSLMTLRNFGMGKRSIEDRVQEEARCLVEELRKTKASPCDPTFILGCAPCNVICSIIFQKRFDYKDQQFLNLMEKLNENIRIVSTPWIQICNNFPTIIDYFPGTHNKLLKNLAFMESDILEKVKEHQESMDINNPRDFIDCFLIKMEKEKQNQQSEFTIENLVITAADLLGAGTETTSTTLRYALLLLLKHPEVTAKVQEEIERVIGRNRSPCMQDRGHMPYTDAVVHEVQRYIDLIPTSLPHAVTCDVKFRNYLIPKGTTILTSLTSVLHDNKEFPNPEMFDPRHFLDEGGNFKKSNYFMPFSAGKRICVGEGLARMELFLFLTFILQNFNLKSLIDPKDLDTTPVVNGFASVPPFYQLCFIPV
For B7, in the data set “not read” (other: formation of M1), the K0.5 is 56.54 ± 16.3 µM, the Vmax was found to be 0.00252 µmol/min/mg and the Vmax/Km is 44.5 µL/min/mg. In the data set “not read” (other: formation of M3), the K0.5 amounted to 16.81 ± 5.02 µM, the Vmax came out at 0.0013 µmol/min/mg and the Vmax/Km was 77.3 µL/min/mg.
